Assay results from the supplement of paper PMC10567573.

B1: TRIM63 (parent)
chain: QEKKLSFIEALIQQYQEQLDKSTK
B2: HESX1 (parent)
chain: SKYENYFSASERLSLKRELSWYRG

Variants of: B1
Assay: protein stability index of a GFP-peptide fusion (GPS, HEK-293T) (PSI 1-6); higher = more stable
Conditions: c terminus: a fixed tail appended
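Further: lentivirally expressed fusions sorted by FACS into six bins by GFP to DsRed ratio, PSI derived from sequencing read proportions per bin multiplied by bin number.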

Protein stability index of substitutions, site by site:
S6: F 2.32; L 2.2; K 2.62; Y 2.09; Q 2.43; D 3.02; G 2.8; W 1.46; A 2.16; M 2.03; R 3.16; H 2.39; P 3.17; I 1.74; N 2.59; V 2.42; C 2.74; E 2.86; T 2.54
F7: M 3.33; R 3.92; I 2.58; H 4.2; S 4.28; G 4.64; Q 4.05; L 3.06; N 4.97; C 3.23; D 4.53; A 4.05; E 4.38; P 4.36
L5: F 2.91; P 3.58; R 3.05; E 3.51; T 2.69; Y 2.08; G 3.91; W 2.12; N 4.19; K 3.11; M 2.38; A 4.08; V 2.57; D 3.93; I 2.76; Q 3.34; H 2.9; C 2.69; S 3.95
Q1: C 2.37; F 1.91; R 2.48; Y 2.02; N 2.49; H 2.28; K 2.34; M 1.99; D 2.21; W 2.76; I 2.03; S 2.4; L 1.49; V 2.39; P 2.39; G 2.31; T 2.23; E 2.74
K3: F 2.43; C 3.24; G 3.03; Q 2.85; I 2.01; P 2.67; D 3.27; Y 2.88; V 2.32; S 3.6; H 2.32; A 2.67; N 3.11; L 2.15; E 3.04; R 2.84; W 1.57; T 3.04
E2: H 2.58; F 2.44; C 1.52; Y 2.75; D 2.74; I 1.92; A 1.63; W 2; Q 2.25; V 1.74; P 2.93; G 2.93; S 1.87; L 2.73; R 2.93; T 2; K 1.81; M 1.92; N 1.9
K4: E 2.73; C 1.9; Q 3.4; H 3.22; V 2.02; T 2.49; S 2.83; A 1.87; R 2.77; G 3.03; Y 2.53; L 2; P 3.07; W 1.85; N 3.32; I 1.96; F 2.18; D 3.48; M 1.68

Variants of: B2
Assay: as above
Conditions: c terminus: a fixed tail appended

Protein stability index, by site and new letter:
R12: I 2.77; G 1.77; S 2; L 2.03; Q 1.95; Y 2.01; F 1.55; E 2.77; N 1.79; V 1.55; K 1.93; C 2.4; T 2.88; D 2.32; H 2.65; M 1.06
E11: V 2.37; Y 1.75; L 2.11; K 2.04; A 1.57; T 1.67; Q 2.49; N 2; D 2.39; G 1.55; I 1.71; H 2.76
S14: R 2.03; W 2.21; Q 2.36; H 1.99; F 1.73; E 2.14; Y 1.92; N 2.25; I 1.27; G 1.33; C 2.07; D 3.59; M 1.74; L 1.02; P 2.96
L15: D 2.65; E 2.22; Y 2.13; R 2.24; A 2.72; H 2.07; F 1.61; I 1.86; V 2.06; T 1.17; P 2.57; W 2.95; S 2.41; K 2.47; M 1.72; C 1.94; N 2.33; Q 2.95
R17: S 1.56; G 1.78; L 1.38; N 1.76; H 2.1; K 2.27; D 2.21; V 3.72; C 1.61; W 1.21; A 2.04; Y 2.66; E 1.91; Q 2.29; T 1.9; M 2.72
L13: G 1.93; E 2.3; P 2.35; V 2.72; D 3.44; K 1.9; F 1.65; N 2.31; Y 1.93; S 2.07; M 1.63
S20: L 2.8; Y 2.75; R 2.14; V 1.24; I 2.8; M 1.14; T 3.72; W 2.91; F 1.66; Q 1.94; P 1.31; K 1.58
A9: Y 2.08; W 1.52; V 1.41
G24: D 2.12; H 2.11; V 2.01; N 1.66; A 1.81; Y 1.45; E 2.46; I 1.81; T 2.07; P 2.46; K 2.74; L 1.35
S10: D 2.19; W 2.31; C 2.34; N 2.13; H 2.38; R 2.3; M 1.86; A 2.07; P 1.95; F 1.07; E 3.04; T 2.77; K 2.72; G 1.56; Y 1.67; Q 2.28
K16: F 1.37; R 1.42; I 1.8; P 3.04; V 2.16; N 2.17; T 1.95; H 1.78; A 2.32; L 2.21; Y 1.94; S 1.9
E18: C 1.43; S 1.38; H 1.77; G 1.87; Q 1.52; R 2.5; K 1.99; N 2.06; I 1.75; P 2.07; D 1.82
Y22: Q 1.7; K 2.46; D 3.06; R 1.9; C 2.27; H 2.56; P 2.29; T 1.9; A 1.82; W 2.4; S 2.22
W21: C 2.2; H 1.73; I 3.04; A 4.19; D 3.19; Y 2.4; N 2.27; M 2.31; S 2.65; G 1.48; F 2.29; P 2.39; V 2.2; K 1.75; T 2.46; Q 2.63
L19: K 1.81; T 2.31; C 2.01; F 2.68; I 2.52; G 1.87; P 2; S 3.25; V 1.79; H 2.66; R 2.18; M 1.95; E 2.08; A 2.62; W 1.41
R23: S 2.1; A 1.85; C 1.53; K 2.14; W 1.83; D 2.1; H 2.3; Q 2.51; Y 1.12; P 2.18; F 2.16; N 1.94
